What was measured:
[1] = system: microbial sample isolated from soy protein; assay: Growth of microbes isolated from soy protein in LB or RPMI; assay type: cell-based
Experimental: Psoriasin was applied to a microbial sample isolated from soy protein that was incubated in RPMI or LB medium, with no addition of external antibiotics. Liquid RPMI 1640 (5 ml) medium w/o Pen/strep antibiotics were inoculated with a colony that grew on an LB agarose plate from Example 8. The inoculated medium was incubated in a 37° C. shaker incubator overnight. Only the medium without antibiotics became turbid as a result of the endogenic bacterial growth. The isolated bacteria were used in dose-response experiments in RPMI 1640 and LB. Microbial growth was monitored in a 96-well plate by reading the absorbance at 600 nm every 10 minutes while adjusting the temperature to 37° C. In the rich LB medium, psoriasin was effective at a concentration of 50 μM (FIG. 9A). In RPMI, psoriasin was effective in concentrations below 1 μM (FIG. 9B).

Aspergillus flavus = assay: Microbial Growth Inhibition Test, broth microdilution optical method; assay type: cell-based
Experimental: The IC90 of psoriasin for several microorganisms was determined by Microbial Growth Inhibition Tests. The tests were performed using the Broth Microdilution Optical Method based on standardized protocols M27 (yeasts) and M38 (filamentous fungi) of the Clinical and Laboratory Standards Institute. […] MOPS, LB (Luria-Bertani), and TSB ([…]) medium types were used, depending on the species being tested. The absorbance was calibrated to each species, and was measured between 450 nm to 650 nm.
In addition, ethyl lauroyl arginate (LAE), a commercially available food preservative, was tested in similar growth conditions as a reference.

[2] = Thermal stability of psoriasin, microbial growth inhibition test (CLSI M27/M38); assay type: cell-based; settings: stock 36 mg/mL in 1×PBS, 4° C to 84° C for one hour
Experimental: In order to assess its thermal stability, psoriasin stock (36 mg/mL in 1×PBS) was subjected to various temperatures ranging from 4° C. to 84° C. for one hour. The thermally treated psoriasin was subsequently used in a microbial growth inhibition test based on standardized protocols M27 (yeasts) and M38 (filamentous fungi) of the Clinical and Laboratory Standards Institute.

[3] = system: initial microbial load of plant-based meat substitute; assay: Microbial load of plant-based meat substitute during storage; assay type: cell-based
Experimental: The ability of psoriasin to extend the shelf life of a plant-based meat substitute was examined under standard storage conditions. Three groups, each stored as an open package at […], were assessed over the course of 16 days. The groups included i) an untreated control, ii) a nisin-treated sample, and iii) a psoriasin-treated sample at 0.65%. A single source of the plant-based meat substitute was used and each group was reproduced in triplicate. The microbial load of the plant-based meat substitute samples was based on the initial microbial load without the addition of antibiotics and without the addition of mold, yeast or bacteria. Samples from each group were taken on days 1, 3, 5, 10, 11 and 16 and total CFU count was determined by plating on LB and PDA agar petri dishes.

C. albicans [4] = assay: Fungal growth in natural apple and beetroot juice; assay type: cell-based, Candida albicans; settings: pH=7, 40 μM and 400 μM
Experimental: Natural beetroot and apple juice without preservatives, was diluted ×0.5 with PBS×1 to avoid high background absorbance. The juice was titrated to pH=7.4 with 1M NaOH, inoculated with C. albicans (1 colony/10 ml), treated with 40 μM and 400 μM His-psoriasin, and monitored with the same measuring program as the RPMI-MOPS experiments. In order to evaluate the effect of His-psoriasin on fungal growth in juice, natural apple and beetroot juices were inoculated without any preservatives with C. albicans. The samples were titrated to pH=7 and treated with 40 μM and 400 μM of recombinant His-psoriasin. The samples were placed in a 96 well-plate and absorbance at 600 nm was monitored vs. time.

C. albicans [5] = assay: Anti-fungal activity after lyophilization or oven drying; assay type: cell-based, Candida albicans
Experimental: The activity of psoriasin was assessed following lyophilization and oven drying. […] In particular, psoriasin was lyophilized and then tested for antimicrobial activity against C. albicans at concentrations of 0.5, 0.25, and 0.125 μM compared with psoriasin that had not been lyophilized.
In another experiment, psoriasin was oven-dried at 50° C. for 24 hours. Subsequently, psoriasin was tested for antimicrobial activity against C. albicans at concentrations of 0.5, 0.25, 0.125, 0.0625 μM compared with psoriasin that was not dried.

E. coli = assay: Thermal stability of psoriasin, E. coli standard growth assay; assay type: cell-based
Experimental: In another study, psoriasin stock (36 mg/mL in 1×PBS) was exposed to temperatures of 70° C., 80° C., and 90° C. for periods of 15, 30, and 60 minutes. After thermal exposure, the activity of the protein was assessed against E. coli in a standard growth assay with 0.4%, 0.2% or 0.1% psoriasin.

B1: psoriasin: Recombinant human psoriasin (S100a7) containing a histidine tag, amino acid sequence SEQ ID NO: 11, expression vector pET-28a (protein, listed as Homo sapiens)
chain: MSNTQAERSIIGMIDMFHKYTRRDDKIEKPSLLTMMKENFPNFLSACDKKGTNYLADVFEKKDKNEDKKIDFSEFLSLLGDIATDYHKQSHGAAPCSGGSQ
[1]; RPMI 1640, 37° C
  effective concentration against isolated microbes: below 1 μM
[1]; rich LB medium, 37° C
  effective concentration against isolated microbes: 50 µM
Aspergillus flavus; Aspergillus flavus, RPMI-MOPS
  IC90: 600 nM
Aspergillus flavus; concentrations of 0.325 μM and above
  inhibition of A. flavus growth: nearly all growth
Aspergillus flavus; concentrations of 0.6 μM and above
  inhibition of detectable A. flavus growth: 100%
[2]
  inhibitory properties after thermal treatment: maintained its inhibitory properties
[3]
  increase of shelf life of plant-based meat substitute: 3 Fold
[3]; Day 1
  Yeast & Mold Count: 2 × 10^2
[3]; Day 1, open package, psoriasin 0.65%
  Total CFU count: 1.2 × 10^4 CFU
[3]; Day 3
  Total CFU count: 1.2 × 10^4 CFU
  Yeast & Mold Count: 2 × 10^2
[3]; Day 5
  Total CFU count: 1.2 × 10^4 CFU
  Yeast & Mold Count: 2 × 10^2
[3]; Day 10
  Total CFU count: 6.65 × 10^5 CFU
  Yeast & Mold Count: 2 × 10^2
[3]; Day 11
  Total CFU count: 6.5 × 10^5 CFU
  Yeast & Mold Count: 2 × 10^2
[3]; Day 16
  Total CFU count: 2.4 × 10^6 CFU
  Yeast & Mold Count: 1 × 10^3
[3]; psoriasin 0.65%
  less microbial load than the other two groups (untreated, nisin): 4 logs
C. albicans [4]
  fungal proliferation in juice: not able to proliferate
C. albicans [5]; 0.5, 0.25 and 0.125 μM
  activity against C. albicans after lyophilization vs not lyophilized: showed the same activity
C. albicans [5]; oven-dried at 50° C for 24 hours, 0.5, 0.25, 0.125, 0.0625 μM
  activity against C. albicans after oven drying vs not dried: showed the same activity
E. coli; 70° C for 15, 30 and 60 minutes, all concentrations
  antimicrobial activity against E. coli after thermal exposure: retained full antimicrobial activity
E. coli; 70° C, 80° C, 90° C for 15 minutes, 0.4%, 0.2% or 0.1% psoriasin
  ability to inhibit E. coli after thermal exposure: maintained its ability to inhibit the growth of E. coli
E. coli; 80° C and 90° C for 1 hour
  antimicrobial activity against E. coli after thermal exposure: inhibited the growth of E. coli, though to a lesser extent

— patent US20260231968A1, “AN ECO-FRIENDLY, SUSTAINABLE FOOD PRESERVATIVE” (priority 2023, published 2026)
